Assay in all cases: SPR; BiaCore T200; […]; 1:1 binding model
Assay [1] concerns the target MPXV H3L ectodomain, His-tagged recombinant protein (mpox virus (MPXV), isolate MPXV_USA_2022_MA001).
The target of assay [2] is MPXV M1R ectodomain, His-tagged recombinant protein (mpox virus (MPXV), isolate MPXV_USA_2022_MA001).
Assay [3] concerns the target MPXV B6R ectodomain, His-tagged recombinant protein (mpox virus (MPXV), isolate MPXV_USA_2022_MA001).
The target in assay [4] is MPXV E8L ectodomain, His-tagged recombinant protein (mpox virus (MPXV), isolate MPXV_USA_2022_MA001).

B1: Nanobody H3L-01 (VHH)
VHH: QVQLVESGGGLVQAGGSLRLSCAASGRIFWWVPMGWYRQAPGKEREFVAGISKGDSTYYADSVKGRFTISRNNAKNTVYLQMNSLKPEDTAVYYCAANPRNNRFRAGVYDYWGQGTQVTVSS
As to B1, in assay [1], the Kd was 11.2 nM, the koff was determined as 0.0209 s⁻¹ and the kon was 1.87e+06 M⁻¹ s⁻¹.

B2: Nanobody M1R-05 (VHH)
VHH: QVQLVESGGGLVQAGGSLRLSCAASGFIFYAWHMGWYRQAPGKERELVASIAYGGDTNYADSVKGRFTISRDNAKNTVYLQMNSLKPEDTAVYYCAAVHFTHHKWDQEYDYWGQGTQVTVSS
B2: in assay [2], the Kd was 85.9 nM, the koff was found to be 0.0037 s⁻¹ and the kon came out at 42800 M⁻¹ s⁻¹.

B3: Nanobody B6R-02 (VHH)
VHH: QVQLVESGGGLVQAGGSLRLSCAASGRIFRRNVMGWYRQAPGKEREFVAAITKGGYTNYADSVKGRFTISRDNAKNTVYLQMNSLKPEDTAVYYCAARYFHRKRHKWRHDYWGQGTQVTVSS
Turning to B3, in assay [3], the Kd was 14000 nM, the off-rate (koff) was found to be 0.0029 s⁻¹ and the kon came out at 209 M⁻¹ s⁻¹.

B4: Nanobody E8L-04 (VHH)
VHH: QVQLVESGGGLVQAGGSLRLSCAASGRIFGRRAMGWYRQAPGKEREFVAAISNGFNTNYADSVKGRFTISRDNAKNTVYLQMNSLKPEDTAVYYCAATVSRRGEQTFFYDYWGQGTQVTVSS
As for B4, in assay [4], the Kd is 1.77 nM, the koff turned out to be 0.0015 s⁻¹ and the kon was determined as 876000 M⁻¹ s⁻¹.

B5: Nanobody E8L-07 (VHH)
VHH: QVQLVESGGGLVQAGGSLRLSCAASGSIFKRYKMGWYRQAPGKEREFVACINKGGDTNYADSVKGRFTISRDNAKNTVYLQMNSLKPEDTAVYYCAVKRHAKAYGEFFYDYWGQGTQVTVSS
For the molecule B5, in assay [4], the Kd amounted to 3.17 nM, the koff came to 0.0018 s⁻¹ and the kon came out at 539000 M⁻¹ s⁻¹.

B6: Nanobody B6R-04 (VHH)
VHH: QVQLVESGGGLVQAGGSLRLSCAASGRIFASDRMGWYRQAPGKEREFVAAISYGSRTNYADSVKGRFTISRDNAKNTVYLQMNSLKPEDTAVYYCAVWAFHRSWKERSHWHDYWGQGTQVTVSS
With B6, in assay [3], the Kd was found to be 1030 nM, the off-rate (koff) came to 0.0412 s⁻¹ and the kon worked out at 39900 M⁻¹ s⁻¹.

B7: Nanobody E8L-05 (VHH)
VHH: QVQLVESGGGLVQAGGSLRLSCAASGRIFDTVEMGWYRQAPGKEREFVASISGGDSTYYADSVKGRFTISRDNAKNTVYLQMNSLKPEDTAVYYCAARSARNRWSIIFYDYWGQGTQVTVSS
As for B7, in assay [4], the Kd is 2.39 nM, the dissociation rate constant (koff) is 0.002 s⁻¹ and the on-rate (kon) amounted to 838000 M⁻¹ s⁻¹.

B8: Nanobody E8L-08 (VHH)
VHH: QVQLVESGGGLVQAGGSLRLSCAASGFIFTNWGMGWYRQAPGKERELVAAITSGSSTNYADSVKGRFTISRDNAKNTVYLQMNSLKPEDTAVYYCAAIRGFSLIYQFFAQYDYWGQGTQVTVSS
Regarding B8, in assay [4], the Kd worked out at 3.11 nM, the koff was found to be 0.002 s⁻¹ and the kon came to 646000 M⁻¹ s⁻¹.

B9: Nanobody E8L-01 (VHH)
VHH: QVQLVESGGGLVQAGGSLRLSCAASGRIFINRVMGWYRQAPGKEREFVAGIAQGGSTNYADSVKGRFTISRDNAKNTVYLQMNSLKPEDTAVYYCAAKFWNWHHDHRGYDYWGQGTQVTVSS
Regarding B9, in assay [4], the Kd was found to be 0.66 nM, the koff is 0.0029 s⁻¹ and the kon was found to be 4.35e+06 M⁻¹ s⁻¹.

B10: Nanobody E8L-03 (VHH)
VHH: QVQLVESGGGLVQAGGSLRLSCAASGFIFTTRGMGWYRQAPGKEREFVACIFPGSSTNYADSVKGRFTISRDNAKNTVYLQMNSLKPEDTAVYYCAAEGPYRGFNFKKNLYDYWGQGTQVTVSS
With B10, in assay [4], the Kd is 5.81 nM, the off-rate (koff) worked out at 0.0034 s⁻¹ and the kon amounted to 662000 M⁻¹ s⁻¹.

B11: Nanobody B6R-06 (VHH)
VHH: QVQLVESGGGLVQAGGSLRLSCAASGRIFRKRNMGWYRQAPGKEREFVASISRGSNTYYADSVKGRFTISRDNAKNTVYLQMNSLKPEDTAVYYCAVWRHRTFVRWKHFDYWGQGTQVTVSS
As for B11, in assay [3], the Kd was 12.1 nM, the koff worked out at 0.0056 s⁻¹ and the association rate constant (kon) is 462000 M⁻¹ s⁻¹.

B12: Nanobody H3L-03 (VHH)
VHH: QVQLVESGGGLVQAGGSLRLSCAASGRIFFFAKMGWYRQAPGKEREFVASIVYGDITYYADSVKGRFTISRDNAKNTVYLQMNSLKPEDTAVYYCAAKPHWPSRRPRRYDYWGQGTQVTVSS
With B12, in assay [1], the Kd turned out to be 35.2 nM, the koff is 0.0092 s⁻¹ and the kon turned out to be 261000 M⁻¹ s⁻¹.

B13: Nanobody M1R-02 (VHH)
VHH: QVQLVESGGGLVQAGGSLRLSCAASGFIFDHWEMGWYRQAPGKEREFVASISAGLSTNYADSVKGRFTISRDNAKNTVYLQMNSLKPEDTAVYYCAARHFTAVFWKNSYDYWGQGTQVTVSS
Turning to B13, in assay [2], the Kd worked out at 23.5 nM, the koff came out at 0.0016 s⁻¹ and the kon was 68300 M⁻¹ s⁻¹.

B14: Nanobody E8L-02 (VHH)
VHH: QVQLVESGGGLVQAGGSLRLSCAASGRIFTDSYMGWYRQAPGKEREFVACITTGSSTYYADSVKGRFTISRDNAKNTVYLQMNSLKPEDTAVYYCAARFRYTVQHWFHTKFDYWGQGTQVTVSS
As for B14, in assay [4], the Kd turned out to be 1.69 nM, the koff was determined as 0.0003 s⁻¹ and the kon amounted to 184000 M⁻¹ s⁻¹.

B15: Nanobody E8L-06 (VHH)
VHH: QVQLVESGGGLVQAGGSLRLSCAASGFIFTSTRMGWYRQAPGKEREFVAGISIGGNTNYADSVKGRFTISRDNAKNTVYLQMNSLKPEDTAVYYCAARYYYFHNHNFAYDYWGQGTQVTVSS
With B15, in assay [4], the Kd is 11.6 nM, the koff was 0.0105 s⁻¹ and the kon is 910000 M⁻¹ s⁻¹.

B16: Nanobody B6R-05 (VHH)
VHH: QVQLVESGGGLVQAGGSLRLSCAASGRIFHPGAMGWYRQAPGKEREFVAGISSGGNTYYADSVKGRFTISRDNAKNTVYLQMNSLKPEDTAVYYCAAPFRWVKATGRFLDYWGQGTQVTVSS
On to B16, for which, in assay [3], the Kd turned out to be 95400 nM, the koff amounted to 0.0008 s⁻¹ and the kon was 8.9 M⁻¹ s⁻¹.

B17: Nanobody M1R-03 (VHH)
VHH: QVQLVESGGGLVQAGGSLRLSCAASGSIFETGAMGWYRQAPGKEREFVAAITGWDTNYADSVKGRFTISRDNAKNTVYLQMNSLKPEDTAVYYCAASHWISFYWEHYHPYDYWGQGTQVTVSS
Regarding B17, in assay [2], the equilibrium dissociation constant (Kd) is 24.9 nM, the off-rate (koff) is 0.0401 s⁻¹ and the kon was 1.61e+06 M⁻¹ s⁻¹.

B18: Nanobody H3L-02 (VHH)
VHH: QVQLVESGGGLVQAGGSLRLSCAASGRIFLHRIMGWYRQAPGKERELVASISRGDNTYYADSVKGRFTISRDNAKNTVYLQMNSLKPEDTAVYYCAAGTGRHKDDHKDYDYWGQGTQVTVSS
Regarding B18, in assay [1], the Kd stood at 94.8 nM, the koff worked out at 0.0725 s⁻¹ and the kon came out at 765000 M⁻¹ s⁻¹.

B19: Nanobody B6R-03 (VHH)
VHH: QVQLVESGGGLVQAGGSLRLSCAASGRILHRKGMGWYRQAPGKEREFVAAINKGGSTNYADSVKGRFTISRDNAKNTVYLQMNSLKPEDTAVYYCAVGKKRRTWINRHYDYWGQGTQVTVSS
As to B19, in assay [3], the dissociation constant Kd worked out at 3180 nM, the koff is 0.349 s⁻¹ and the kon worked out at 110000 M⁻¹ s⁻¹.

Usually Kd stands for the constant that tells how readily two partners part at equilibrium. Usually koff stands for a measure of how fast the partners let go of each other. By kon is commonly meant the rate constant with which the complex forms.
